Experimental data published in PMC5863699, “Sensing iron availability via the fragile [4Fe–4S] cluster of the bacterial transcriptional repressor RirA† †Electronic supplementary information (ESI) available. See DOI: 10.1039/c7sc02801f” (Chemical Science, 2017).

Target: the molecule itself
Assay: native MS; ESI-MS under non-denaturing conditions, positive ion mode; cluster-reconstituted [4Fe–4S] RirA, ~30 μM in cluster, 250 mM ammonium acetate pH 7.3; monomer to dimer

B1: Rhizobial iron regulator A (RirA) from Rhizobium leguminosarum (natural protein, UniProt Q9AE46 1-160, looked up)
chain: MRLTKQTNYAVRMLMYCAANDGHLSRIPEIAKAYGVSELFLFKILQPLNKAGLVETVRGRNGGVRLGKPAADISLFDVVRVTEDSFAMAECFEDDGEVECPLVDSCGLNSALRKALNAFFAVLSEYSIDDLVKARPQINFLLGITGEPAYRKPAIVAPAA
notes: RirA, Rhizobium leguminosarum strain 8401 (pRL1JI), rirA gene CAC35510, codon-optimised for E. coli; calculated mass of the monomer 17.4 kDa (apo predicted 17 442 Da, observed 17 441 Da); No tag is mentioned; It carries an iron–sulfur cluster as cofactor: [4Fe–4S] after reconstitution, and mainly [2Fe–2S] after 1 mM EDTA for 2.5 h; Less than 5% of the preparation was truncated, lacking 20 …
B1 was tested. Which “stoichiometry N” value did it give?
The value was 2.
